Results taken from publication PMC3985756 (Biochemistry, 2014).

Target: the molecule itself
Assay: crystal structure

B1: N-terminal six-His-tagged FosB from Staphylococcus aureus with a bacillithiol-Cys9 disulfide bond (enzyme)
chain: not shown
modifications: Cys9 in a disulfide bond with bacillithiol (BS-Cys9)
stoichiometry N: 2
